Experimental findings from publication PMC2795026 are described below.

Read-outs that look alike come from different tables or passages of the source.

Data set [1] addresses T1, Brh2 apoprotein (stripped of Dss1) (Ustilago maydis, UniProt Q8NJ74 1-1075).
T1 sequence: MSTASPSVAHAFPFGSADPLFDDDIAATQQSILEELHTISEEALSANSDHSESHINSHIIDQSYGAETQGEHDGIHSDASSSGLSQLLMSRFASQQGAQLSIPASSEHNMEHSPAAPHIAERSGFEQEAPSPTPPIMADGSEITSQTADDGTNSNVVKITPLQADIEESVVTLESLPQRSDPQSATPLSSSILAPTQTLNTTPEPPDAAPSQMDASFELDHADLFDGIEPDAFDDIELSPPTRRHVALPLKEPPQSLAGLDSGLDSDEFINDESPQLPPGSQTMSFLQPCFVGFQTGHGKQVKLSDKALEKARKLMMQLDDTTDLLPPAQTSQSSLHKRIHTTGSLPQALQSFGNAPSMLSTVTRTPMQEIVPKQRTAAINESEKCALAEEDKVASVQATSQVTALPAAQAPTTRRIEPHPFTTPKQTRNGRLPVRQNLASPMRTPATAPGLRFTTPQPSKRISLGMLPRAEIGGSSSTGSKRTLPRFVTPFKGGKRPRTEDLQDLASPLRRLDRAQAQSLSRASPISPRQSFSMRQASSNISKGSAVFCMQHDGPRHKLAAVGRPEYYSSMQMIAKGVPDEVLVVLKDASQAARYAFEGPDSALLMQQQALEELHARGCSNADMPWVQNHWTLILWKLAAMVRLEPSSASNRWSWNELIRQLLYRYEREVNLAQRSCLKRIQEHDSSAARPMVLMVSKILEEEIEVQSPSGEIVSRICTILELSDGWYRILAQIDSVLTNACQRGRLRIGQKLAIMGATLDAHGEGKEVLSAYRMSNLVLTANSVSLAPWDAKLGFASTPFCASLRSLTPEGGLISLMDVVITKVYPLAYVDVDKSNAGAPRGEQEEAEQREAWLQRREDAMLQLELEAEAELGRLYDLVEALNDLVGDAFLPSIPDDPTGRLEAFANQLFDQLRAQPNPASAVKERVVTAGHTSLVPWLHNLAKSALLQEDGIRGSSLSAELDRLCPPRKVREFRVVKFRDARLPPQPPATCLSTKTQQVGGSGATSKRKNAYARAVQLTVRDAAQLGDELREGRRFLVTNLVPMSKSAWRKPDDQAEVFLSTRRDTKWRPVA
Kind of data set: EMSA.

Data set [2] has as its target T2, MBP-Brh2 (Ustilago maydis, UniProt Q8NJ74 1-1075).
T2 sequence: T1 sequence
In words: pull-down.

Data set [3] concerns the target T3, MBP-Brh2NT-His (Ustilago maydis, UniProt Q8NJ74 1-551).
T3 sequence: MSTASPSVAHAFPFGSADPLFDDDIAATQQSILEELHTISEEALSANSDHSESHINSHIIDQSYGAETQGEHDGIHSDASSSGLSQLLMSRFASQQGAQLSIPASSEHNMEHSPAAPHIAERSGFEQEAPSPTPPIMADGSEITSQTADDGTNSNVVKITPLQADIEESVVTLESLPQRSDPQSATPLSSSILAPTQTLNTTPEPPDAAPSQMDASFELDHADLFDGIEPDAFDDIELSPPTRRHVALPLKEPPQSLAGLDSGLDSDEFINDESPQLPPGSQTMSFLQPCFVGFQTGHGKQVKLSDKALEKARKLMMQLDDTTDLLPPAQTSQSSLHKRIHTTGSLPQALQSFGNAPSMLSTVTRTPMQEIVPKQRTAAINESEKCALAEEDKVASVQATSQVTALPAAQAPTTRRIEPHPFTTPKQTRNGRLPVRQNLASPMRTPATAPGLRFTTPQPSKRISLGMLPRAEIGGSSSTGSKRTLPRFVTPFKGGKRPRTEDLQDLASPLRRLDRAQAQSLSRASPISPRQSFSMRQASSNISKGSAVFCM
Kind of data set: EMSA. On the technique in general: Mobility shift assays separate free from complexed probe on a gel.

Data set [4] has as its target T2, MBP-Brh2. In words: pull-down. This is another data set of the same source.

B1: ss60mer (ssDNA)
DNA: GCTGCGCAAGGATAGGTCGAATTTTCTCATTTTCCGCCAGCAGTCCACTTCGATTTAATT
B1: the binding result in data set [1], in data set [2] and in data set [3] was “binds” in each case.

B2: 3'-biotin ss60mer (ssDNA)
DNA: B1 DNA
Consider B2, for which the binding result in data set [4] is reported as “binds”.
